Results taken from patent publication US20190048089A1 (Janssen / Centocor, published 2019).

T1: cyno CD40 on cyno spleen B cells (Macaca fascicularis (cynomolgus), UniProt P25942 21-277 (human entry))
T1 chain: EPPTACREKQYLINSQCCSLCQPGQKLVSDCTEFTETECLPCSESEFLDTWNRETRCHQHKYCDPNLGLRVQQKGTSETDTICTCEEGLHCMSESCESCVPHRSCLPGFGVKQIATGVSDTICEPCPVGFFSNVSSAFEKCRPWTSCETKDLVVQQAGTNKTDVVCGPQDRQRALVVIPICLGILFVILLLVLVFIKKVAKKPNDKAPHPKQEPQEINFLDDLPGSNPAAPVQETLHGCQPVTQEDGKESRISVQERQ


Experiments:
[1] = target: T2, human CD40 (analyte in SPR) (human, UniProt P25942 21-193); test: SPR, ProteOn XPR36, mAb captured on anti-human IgG Fc, CD40 as analyte, 25 C, 1:1 Langmuir
T2 construct: also called huCD40
Procedure: Affinity of the antibodies to human CD40 was assessed using Surface Plasmon Resonance (SPR) using a ProteOn XPR36 system (BioRad). […] Approximately 5000 RU (response units) of mAbs were immobilized. The kinetic experiments were performed at 25° C. in running buffer (DPBS+0.01% P20+100 μg/ml BSA). To perform kinetic experiments, 200 RU of mAbs were captured followed by injections of analytes (human or cyno CD40) at 5 concentrations (in a 4-fold serial dilution). The association phase was monitored for 3 minutes at 50 μL/min, then followed by 15 minutes of buffer flow (dissociation phase). The chip surface was regenerated with two 18 second pulses of 100 mM H₃PO₄ (Sigma, Cat#7961) at 100 μL/min.
The collected data were processed using ProteOn Manager software. First, the data was corrected for background using inter-spots. Then, double reference subtraction of the data was performed by using the buffer injection for analyte injections. The kinetic analysis of the data was performed using a Langmuir 1:1 binding model. The results were reported in the format of Ka (On-rate), Kd (Off-rate) and KD (equilibrium dissociation constant).

[2] = target: T3, human CD40 on cells (human tonsillar B cells, human dendritic cells, HEK-Blue CD40L cells) (human, UniProt P25942 21-277); test: cell-based or functional assay
[3] = target: T2, human CD40 (analyte in SPR); test: affinity in benchmark table; method not restated (SPR ProteOn of Example 3 presumed); Table 14 benchmark table, not Table 12
[4] = target: T1, cyno CD40 on cyno spleen B cells; test: cell-based or functional assay
[5] = target: T3, human CD40 on cells (human tonsillar B …); test: cell-based or functional assay; remark: listed apart in the source
[6] = target: T2, human CD40 (analyte in SPR); test: affinity in benchmark table; method not restated (SPR ProteOn of Example 3 presumed)
[7] = target: T3, human CD40 on cells (human tonsillar B …); test: cell-based or functional assay; remark: listed apart in the source
[8] = target: T1, cyno CD40 on cyno spleen B cells; test: cell-based or functional assay
[9] = target: T3, human CD40 on cells (human tonsillar B …); test: cell-based or functional assay; remark: listed apart in the source

Binder	Kd [1] [nM]	koff [1] [s⁻¹]	kon [1] [M⁻¹ s⁻¹]	IC50, mCD40L-driven DC IL-12p40 production [2] [nM]	IC50, sCD40L-driven DC IL-12p40 production [2] [nM]	Kd [3] [nM]	IC50, sCD40L-driven cyno B-cell proliferation [4] [nM]	IC50, mCD40L-driven human B-cell proliferation [5] [nM]	IC50, sCD40L-driven human B-cell proliferation [5] [nM]	Kd [6] [nM]	IC50, human DC IL-12p40 production, membrane CD40L [7] [nM]	IC50, human DC IL-12p40 production, soluble CD40L [7] [nM]	IC50, B cell proliferation, soluble CD40L, cyno B-cells [8] [nM]	IC50, B cell proliferation, membrane CD40L, human B-cells [9] [nM]	IC50, B cell proliferation, soluble CD40L, human B-cells [9] [nM]
C40B176 (antibody, human IgG1, lambda, IgG1sigma) heavy: EVQLVESGGGLVQPGGSLRLSCAASGFTFSSYAMSWVRQAPGKGLEWVSTINAAGGGTYYADSVKGRFTISRDNSKNTLYLQMNSLRAEDTAVYYCAKEGGKYYYYALDVWGQGTTVTVSSASTKGPSVFPLAPSSKSTSGGTAALGCLVKDYFPEPVTVSWNSGALTSGVHTFPAVLQSSGLYSLSSVVTVPSSSLGTQTYICNVNHKPSNTKVDKKVEPKSCDKTHTCPPCPAPEAAGASSVFLFPPKPKDTLMISRTPEVTCVVVDVSAEDPEVKFNWYVDGVEVHNAKTKPREEQYNSTYRVVSVLTVLHQDWLNGKEYKCKVSNKALPSSIEKTISKAKGQPREPQVYTLPPSREEMTKNQVSLTCLVKGFYPSDIAVEWESNGQPENNYKTTPPVLDSDGSFFLYSKLTVDKSRWQQGNVFSCSVMHEALHNHYTQKSLSLSPGK light: SYELTQPPSVSVSPGQTASITCSGDKLGDKYAAWYQQKPGQSPVLVIYQDSRRPSGIPERFSGSNSGNTATLTISGTQAMDEADYYCQAWASSTVVFGGGTKLTVLGQPKAAPSVTLFPPSSEELQANKATLVCLISDFYPGAVTVAWKADSSPVKAGVETTTPSKQSNNKYAASSYLSLTPEQWKSHRSYSCQVTHEGSTVEKTVAPTECS	0.107	0.000307	2.86e+06	0.245	0.22	0.0496	0.108	0.181	0.132	–	–	–	–	–	–
Astellas/Kirin ASKP-1240 (antibody, human IgG4 S228P, kappa, V domains shown, Benchmark) VH: QLQLQESGPGLLKPSETLSLTCTVSGGSISSPGYYGGWIRQPPGKGLEWIGSIYKSGSTYHNPSLKSRVTISVDTSKNQFSLKLSSVTAADTAVYYCTRPVVRYFGWFDPWGQGTLVTVSS VL: AIQLTQSPSSLSASVGDRVTITCRASQGISSALAWYQQKPGKAPKLLIYDASNLESGVPSRFSGSGSGTDFTLTISSLQPEDFATYYCQQFNSYPTFGQGTKVEIKR	–	–	–	–	–	–	–	–	–	0.181	0.28	0.119	0.146	0.132	0.079
Antibody D (antibody, human IgG1, kappa, L234A L235A, V domains shown, Benchmark; also called antibody B IgG1KOb (U.S. Pat. No. 8,591,900)) VH: EVQLVESGGGLVKPGGSLRLSCAASGFTFSDYGMHWVRQAPGKGLEWVAYISSGNRIIYYADTVKGRFTISRDNAKNSLYLQMNSLRAEDTAVYYCARQDGYRYAMDYWGQGTLVTVSS VL: DIVMTQSPDSLAVSLGEKVTINCKSSQSLLNSGNQKNYLTWHQQKPGQPPKLLIYWTSTRESGVPDRFSGSGSGTDFTLTISSLQAEDVAVYYCQNDYTYPLTFGGGTKVEIKR	–	–	–	–	–	–	–	–	–	0.58	3.63	0.781	–	1.93	0.68
Novartis CFZ533 (antibody, human IgG1, kappa, N297A, V domains shown, Benchmark) VH: QVQLVESGGGVVQPGRSLRLSCAASGFTFSSYGMHWVRQAPGKGLEWVAVISYEESNRYHADSVKGRFTISRDNSKITLYLQMNSLRTEDTAVYYCARDGGIAAPGPDYWGQGTLVTVSS VL: DIVMTQSPLSLTVTPGEPASISCRSSQSLLYSNGYNYLDWYLQKPGQSPQVLISLGSNRASGVPDRFSGSGSGTDFTLKISRVEAEDVGVYYCMQARQTPFTFGPGTKVDIRR	–	–	–	–	–	–	–	–	–	0.00936	0.948	0.32	–	0.279	0.223
